Source: publication PMC12884772, “Macrophagic Sclerostin Loop2‐ApoER2 Interaction Required by Sclerostin for Cardiovascular Protective Action” (Advanced Science, 2025)
Changes are numbered by the printed parent chain. Names and notes keep the numbering of the source.

B1: ApoER2‐M2: ApoER2 mutein P253A, T254A, G268A, W269A, R270A (protein, UniProt Q924X6 29-996, looked up, variant P253A T254A G268A W269A R270A)
Low-density lipoprotein …: DPLPGGQGPVKECEEDQFRCRNERCIPLVWRCDEDNDCSDNSDEDDCPKRTCADSDFTCDNGHCIPERWKCDGEEECPDGSDESKATCSSEECPAEKLSCGPTSHKCVPASWRCDGEKDCEGGADEAGCPTLCAPHEFQCSNRSCLASVFVCDGDDDCGDGSDERGCSDPACPPREFRCGGGGTCIPERWVCDRQFDCEDRSDEAAELCGRAGQGTTATPAACAAAAQFTCRSGECIHLAAACDGDRDCKDKSDEADCSPGPCRENEFQCGDGTCVLAIKRCNQERDCPDGSDEAGCLQESTCEGPRRFQCKSGECVDGGKVCDDQRDCRDWSDEPQKVCGLNECLHNNGGCSHICTDLKIGFECTCPAGFQLLDQKTCGDIDECQDPDACSQICVNYKGYFKCECHPGYEMDTLTKNCKAVAGKSPSLIFTNRHEVRRIDLVKRDYSRLIPMLKNVVALDVEVATNRIYWCDLSYRKIYSAHMDKASIPDEQVVLIDEQLHSPEGLAVDWVHKHIYWTDSGNKTISVATTDGRRRCTLFSRELSEPRAIAVDPLRGFMYWSDWGFQAKIEKAGLNGADRQTLVSDNIEWPNGITLDLLSQRLYWVDSKLHQLSSIDFNGGNRKMLIFSTDFLSHPFGVAVFEDKVFWTDLENEAIFSANRLNGLEIAILAENLNNPHDIVIFHELKQPKAADACDLSAQPNGGCEYLCLPAPQISSHSPKYTCACPDTMWLGPDMKRCYRAPQSTSTTTLASAMTRTVPATTRAPGTTIHDPTYQNHSTETPSQTAAAPHSVNVPRAPSTSPSTPSPATSNHSQHYGNEGSQMGSTVTAAVIGVIVPIVVIALLCMSGYLIWRNWKRKNTKSMNFDNPVYRKTTEEEEEDELHIGRTAQIGHVYPAAISNYDRPLWAEPCLGETRDLEDPAPALKELFVLPGEPRSQLHQLPKNPLSELPVVKCKRVALSLEDDGLP
B2: ApoER2‐M8: ApoER2 mutein P253A, T254A, G268A, W269A, R270A, N311A, Q312A, E313A, encoded by Lrp8m (protein, UniProt Q924X6 29-996, looked up, variant P253A T254A G268A W269A R270A N311A Q312A E313A)
Low-density lipoprotein …: B1 Low-density lipoprotein … with N283A, Q284A, E285A
B3: SOST^loop2m: sclerostin mutein with I94A, G95A, R96A, K98A, W99A, encoded by sost^loop2m (protein)
chain: QGWQAFRNDATEVIPGLGEYPEPPPENNQTMNRAENGGRPPHHPYDAKDVSEYSCRELHYTRFLTDGPCRSAKPVTELVCSGQCGPARLLPNAAAAVAAWRPNGPDFRCIPDRYRAQRVQLLCPGGAAPRSRKVRLVASCKCKRLTRFHNQSELKDFGPETARPQKGRKPRPGARGAKANQAELENAY

Legend:
sclerostin loop2 = sclerostin loop2 (Mus musculus, UniProt Q99P68); assay: Pull‐down assay of ApoER2 muteins with sclerostin loop2; type: binding; conditions: Figure 6D
Description: The interaction residues within ApoER2 to sclerostin loop2 were determined in combination with pull‐down assay and BLI analysis. Based on the interaction residues within ApoER2 to sclerostin loop2, a series of Lrp8 mutations were developed. Based on the interaction residues within sclerostin loop2 to ApoER2, a series of sost mutations were developed.
Cell lysates were collected using RIPA Lysis and Extraction Buffer (Thermo Scientific, 89 901) supplemented with Protease Inhibitor Cocktail (CST, 5871) and centrifuged at 4000 rpm for 30 min at 4 °C, and replaced with binding buffer (PBS buffer, 20 mM imidazole, pH 8.0). After pretreatment with binding buffer three times, 20 µL Ni‐NTA Magnetic Agarose Beads were incubated with 6 µg His‐SOST and 6 µg His‐loop3 peptide, respectively, in binding buffer for 2 h at 4 °C with gentle rotation. The beads carrying His‐SOST and His‐loop3 peptide were then incubated with 500 µL cell lysate supernatant at 4 °C overnight with gentle rotation. To eliminate the influence of non‐specific binding between beads and cell lysate, 20 µL beads and 500 µL cell lysate were incubated under the same conditions. […]
The eluted liquid from pull‐down assay was then mixed with SDS‐PAGE loading buffer and boiled for 10 min at 95 °C to make samples. […] The ECL solution (BIO‐RAD, 1 705 061) was used to visualize detected proteins. […]

ApoER2 = target: T1, ApoER2 (Mus musculus, UniProt Q924X6); assay: Co‐immunoprecipitation of wild‐type/mutated sclerostin with ApoER2 in macrophages (RAW264.7); type: binding; conditions: Figure 6E
T1 construct: FLAG; expressed in transfected cells; host or cells: RAW264.7
T1 sequence (Q924X6 29-996): B1 Low-density lipoprotein … with A225P, A226T, A240G, A241W, A242R
Description: The interaction of full‐length (FL)/truncated ApoER2 with full‐length (FL) /truncated sclerostin in macrophages (RAW264.7) were determined by pull‐down assay and Co‐IP assay. The binding affinity of ApoER2 to FL sclerostin and sclerostin loop2 were determined by biolayer interferometry (BLI) analysis. Moreover, the binding of sclerostin to ApoER2 on macrophages (RAW264.7) was examined by confocal microscopy.

Sequence of sclerostin loop2 (Q99P68 107-132 limits assumed): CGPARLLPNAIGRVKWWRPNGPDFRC

Molecule	Binding ability of sclerostin loop2 to ApoER2 mutein versus wild‐type ApoER2 (sclerostin loop2)	Interaction with ApoER2 by co‐IP (ApoER2)
B1	dramatically weaker	
B2	dramatically weaker	
B3		No interaction
